Legend:
A*02:06 [1] = test: SPR; low fitting confidence
A*02:11 [2] = test: SPR; low fitting confidence
A*02:05 [3] = test: SPR; low fitting confidence
A*02:02 [4] = test: SPR; low fitting confidence
A*02:07 [5] = test: SPR; low fitting confidence
A*02:03 = test: SPR
A*02:06 [6] = test: SPR
A*02:11 [7] = test: SPR
A*02:05 [8] = test: SPR
A*02:02 [9] = test: SPR
A*02:07 [10] = test: SPR

Kd (A*02:06 [1]) | Kd (A*02:11 [2]) | Kd (A*02:05 [3]) | Kd (A*02:02 [4]) | Kd (A*02:07 [5]) | Kd (A*02:03) | Kd (A*02:06 [6]) | Kd (A*02:11 [7]) | Kd (A*02:05 [8]) | Kd (A*02:02 [9]) | Kd (A*02:07 [10]) | Binder
> 3.1 µM | > 28 µM | > 100 µM | > 5 µM | > 4.8 µM | 38 µM | – | – | – | – | – | AS170036 (Fc fusion) QLVLTQPSSVSGTPGQTVTISCAGTSSDVGSENYVSWYRQLPGTAPKLLIYQVNKRASGIADRFSGSKSGNTASMTISGLQSADEADYYCASYRSSDHNIVFGGGTHLTVLGGGGSGGGGSGGGGSAVQLVESGGGLVQPGGSLRLSCTASGFTFSSYAMSWVRQAPGKGLEWVSTINSGTGSPYYADSVKGRFTISRDNAKNTLYLQLNSLKTEDTAMYYCAKNFFDGSWFLGPPAMDYWGKGTLVTISS
– | – | – | – | – | 2.57 µM | 0.114 µM | 0.297 µM | 29 µM | 32.2 µM | 1.27 µM | AS179723 (Fc fusion) QAGLTQPPSMSGSPRQSVTISCTGSSNNIGGNYVNWYQHLPGTAPKLLIYDNKNRPSGVPEQISGSKSGSSASLTITGLQAEDEGDYYCASWDDSLSAVVFGGGTHLTVLGGGGSGGGGSGGGGSEVQLVESGGGLVQPGGSLRLSCAASGFTFLNYAMSWVRQAPGKGLEWVSSNSGAGSTYYSDSVKGRFTISRDYAKNVVYLQLNSLKTEDTGMYYCAKGTNVGSWSSLHYWGQGTQVTVSS

— patent US20240279318A1 (published 2024)
